Data as given in patent publication US20150093802.

What was measured:
Experiment in all cases: one_hybrid
[1] = test system: OZ123 (CF877R) (synthetic); conditions: bacterial two-hybrid lacZ, SD 0.63
[2] = test system: OZ125 (CF877R) (synthetic); conditions: bacterial two-hybrid lacZ, SD 0.85
[3] = test system: OZ122 (CF877R) (synthetic); conditions: bacterial two-hybrid lacZ, SD 0.59
[4] = test system: OZ136 (CF877R) (synthetic); conditions: bacterial two-hybrid lacZ, SD 0.06
[5] = test system: OZ130 (CF877R) (synthetic); conditions: bacterial two-hybrid lacZ, SD 0.22
[6] = test system: OZ137 (CF877R) (synthetic); conditions: bacterial two-hybrid lacZ, SD 0.04
[7] = test system: OZ140 (CF877R) (synthetic); conditions: bacterial two-hybrid lacZ, SD 0.48
[8] = test system: OZ129 (CF877R) (synthetic); conditions: bacterial two-hybrid lacZ, SD 0.07
[9] = test system: OZ138 (CF877R) (synthetic); conditions: bacterial two-hybrid lacZ, SD 0.41
[10] = test system: OZ141 (CF877R) (synthetic); conditions: bacterial two-hybrid lacZ, SD 0.08
[11] = test system: OZ128 (CF877R) (synthetic); conditions: bacterial two-hybrid lacZ, SD 0.07
[12] = test system: OZ120 (CF877R) (synthetic); conditions: bacterial two-hybrid lacZ, SD 0.01
[13] = test system: OZ134 (CF877R) (synthetic); conditions: bacterial two-hybrid lacZ, SD 0.19
[14] = test system: OZ127 (CF877R) (synthetic); conditions: bacterial two-hybrid lacZ, SD 0.02
[15] = test system: OZ121 (CF877R) (synthetic); conditions: bacterial two-hybrid lacZ, SD 0.19
[16] = test system: OZ133 (CF877R) (synthetic); conditions: bacterial two-hybrid lacZ, SD 0.05
[17] = test system: OZ139 (CF877R) (synthetic); conditions: bacterial two-hybrid lacZ, SD 0.03
[18] = test system: OZ131 (CF877R) (synthetic); conditions: bacterial two-hybrid lacZ, SD 0.12
[19] = test system: OZ135 (CF877R) (synthetic); conditions: bacterial two-hybrid lacZ, SD 0.07
[20] = test system: OZ119 (CF877R) (synthetic); conditions: bacterial two-hybrid lacZ, SD 0.35
[21] = test system: OZ142 (CF877R) (synthetic); conditions: bacterial two-hybrid lacZ, SD 0.16
[22] = test system: OZ124 (CF877R) (synthetic); conditions: bacterial two-hybrid lacZ, SD 0.20
[23] = test system: OZ126 (CF877R) (synthetic); conditions: bacterial two-hybrid lacZ, SD 0.28
[24] = test system: OZ108 (CF877L) (synthetic); conditions: bacterial two-hybrid lacZ, SD 0.51
[25] = test system: OZ117 (CF877L) (synthetic); conditions: bacterial two-hybrid lacZ, SD 0.33
[26] = test system: OZ112 (CF877L) (synthetic); conditions: bacterial two-hybrid lacZ, SD 0.55
[27] = test system: OZ109 (CF877L) (synthetic); conditions: bacterial two-hybrid lacZ, SD 0.20
[28] = test system: OZ110 (CF877L) (synthetic); conditions: bacterial two-hybrid lacZ, SD 0.15; marked + in table
[29] = test system: OZ116 (CF877L) (synthetic); conditions: bacterial two-hybrid lacZ, SD 0.38
[30] = test system: OZ115 (CF877L) (synthetic); conditions: bacterial two-hybrid lacZ, SD 0.12
[31] = test system: OZ113 (CF877L) (synthetic); conditions: bacterial two-hybrid lacZ, SD 0.20
[32] = test system: OZ114 (CF877L) (synthetic); conditions: bacterial two-hybrid lacZ, SD 0.18
[33] = test system: OZ118 (CF877L) (synthetic); conditions: bacterial two-hybrid lacZ, SD 0.08
[34] = test system: OZ107 (CF877L) (synthetic); conditions: bacterial two-hybrid lacZ, SD 0.58
[35] = test system: OZ111 (CF877L) (synthetic); conditions: bacterial two-hybrid lacZ, SD 1.90; marked + in table

**Q.** Which activity (fold activation) [1] does the source give for “GAGTGGTTA (double strand) [CF877R half-site]” here?
**A.** Its activity (fold activation) is 5.03.

**Q.** What about the activity (fold activation) [2] of the same sequence?
**A.** The activity (fold activation) was 4.

**Q.** What about the activity (fold activation) [3] of the same sequence?
**A.** The activity (fold activation) was 4.72.

**Q.** What about the activity (fold activation) [4] of the same sequence?
**A.** Its activity (fold activation) is 2.16.

**Q.** What about the activity (fold activation) [5] of the same sequence?
**A.** The activity (fold activation) was 2.47.

**Q.** And the activity (fold activation) [6]?
**A.** The activity (fold activation) was 2.26.

**Q.** And the activity (fold activation) [7]?
**A.** The activity (fold activation) was 2.99.

**Q.** What about the activity (fold activation) [8] of the same sequence?
**A.** The activity (fold activation) was 2.55.

**Q.** What about the activity (fold activation) [9] of the same sequence?
**A.** The activity (fold activation) was 2.52.

**Q.** What about the activity (fold activation) [10] of the same sequence?
**A.** Its activity (fold activation) is 2.87.

**Q.** And the activity (fold activation) [11]?
**A.** Its activity (fold activation) is 2.12.

**Q.** And the activity (fold activation) [12]?
**A.** The activity (fold activation) was 2.53.

**Q.** And the activity (fold activation) [13]?
**A.** The activity (fold activation) was 3.71.

**Q.** And the activity (fold activation) [14]?
**A.** The activity (fold activation) was 1.6.

**Q.** What about the activity (fold activation) [15] of the same sequence?
**A.** Its activity (fold activation) is 2.91.

**Q.** What about the activity (fold activation) [16] of the same sequence?
**A.** Its activity (fold activation) is 3.24.

**Q.** And the activity (fold activation) [17]?
**A.** The activity (fold activation) was 2.74.

**Q.** And the activity (fold activation) [18]?
**A.** The activity (fold activation) was 2.08.

**Q.** And the activity (fold activation) [19]?
**A.** The activity (fold activation) was 2.25.

**Q.** And the activity (fold activation) [20]?
**A.** The activity (fold activation) was 2.78.

**Q.** What about the activity (fold activation) [21] of the same sequence?
**A.** Its activity (fold activation) is 2.73.

**Q.** And the activity (fold activation) [22]?
**A.** The activity (fold activation) was 4.41.

**Q.** And the activity (fold activation) [23]?
**A.** Its activity (fold activation) is 2.57.

**Q.** Which activity (fold activation) [24] does the source give for “GTGGAATTA (double strand) [CF877L half-site]” here?
**A.** Its activity (fold activation) is 2.31.

**Q.** What about the activity (fold activation) [25] of the same sequence?
**A.** The activity (fold activation) was 3.87.

**Q.** And the activity (fold activation) [26]?
**A.** Its activity (fold activation) is 2.52.

**Q.** What about the activity (fold activation) [27] of the same sequence?
**A.** The activity (fold activation) was 2.83.

**Q.** And the activity (fold activation) [28]?
**A.** The activity (fold activation) was 1.61.

**Q.** What about the activity (fold activation) [29] of the same sequence?
**A.** Its activity (fold activation) is 2.53.

**Q.** What about the activity (fold activation) [30] of the same sequence?
**A.** The activity (fold activation) was 2.71.

**Q.** And the activity (fold activation) [31]?
**A.** Its activity (fold activation) is 1.61.

**Q.** What about the activity (fold activation) [32] of the same sequence?
**A.** Its activity (fold activation) is 2.95.

**Q.** What about the activity (fold activation) [33] of the same sequence?
**A.** Its activity (fold activation) is 3.55.

**Q.** What about the activity (fold activation) [34] of the same sequence?
**A.** Its activity (fold activation) is 1.92.

**Q.** And the activity (fold activation) [35]?
**A.** The activity (fold activation) was 2.2.
